Data on 1 molecule can be found in publication PMC6220203 (2018).

This assay concerns the target Biotinylated aMD5 (C-terminal biotinylated macrocycle) (macrocyclized; biotin (NHS-biotin) on the added C-terminal Lys). Nature of the assay: SPR.

B1: MET receptor extracellular domain SEMA–IPT4 (residues 1–931)-Fc (Fc fusion)
chain: ECKEALAKSEMNVNMKYQLPNFTAETPIQNVILHEHHIFLGATNYIYVLNEEDLQKVAEYKTGPVLEHPDCFPCQDCSSKANLSGGVWKDNINMALVVDTYYDDQLISCGSVNRGTCQRHVFPHNHTADIQSEVHCIFSPQIEEPSQCPDCVVSALGAKVLSSVKDRFINFFVGNTINSSYFPDHPLHSISVRRLKETKDGFMFLTDQSYIDVLPEFRDSYPIKYVHAFESNNFIYFLTVQRETLDAQTFHTRIIRFCSINSGLHSYMEMPLECILTEKRKKRSTKKEVFNILQAAYVSKPGAQLARQIGASLNDDILFGVFAQSKPDSAEPMDRSAMCAFPIKYVNDFFNKIVNKNNVRCLQHFYGPNHEHCFNRTLLRNSSGCEARRDEYRTEFTTALQRVDLFMGQFSEVLLTSISTFIKGDLTIANLGTSEGRFMQVVVSRSGPSTPHVNFLLDSHPVSPEVIVEHTLNQNGYTLVITGKKITKIPLNGLGCRHFQSCSQCLSAPPFVQCGWCHDKCVRSEECLSGTWTQQICLPAIYKVFPNSAPLEGGTRLTICGWDFGFRRNNKFDLKKTRVLLGNESCTLTLSESTMNTLKCTVGPAMNKHFNMSIIISNGHGTTQYSTFSYVDPVITSISPKYGPMAGGTLLTLTGNYLNSGNSRHISIGGKTCTLKSVSNSILECYTPAQTISTEFAVKLKIDLANRETSIFSYREDPIVYEIHPTKSFISGGSTITGVGKNLNSVSVPRMVINVHEAGRNFTVACQHRSNSEIICCTTPSLQQLNLQLPLKTKAFFMLDGILSKYFDLIYVHNPVFKPFEKPVMISMGNENVLEIKGNDIDPEAVKGEVLKVGNKSCENIHLHSEAVLCTVPNDLLKLNSELNIEWKQAISSTVLGKVIVQPDQNF
By koff is commonly meant a measure of how fast the partners let go of each other. Read a low koff as slow dissociation. On to B1, for which the koff was 0.00041 s⁻¹.
